In IntAct's records for PubMed 9428768:

B1: Cell division control protein 24 (Saccharomyces cerevisiae), P11433 (parent)
chain: MAIQTRFASGTSLSDLKPKPSATSISIPMQNVMNKPVTEQDSLFHICANIRKRLEVLPQLKPFLQLAYQSSEVLSERQSLLLSQKQHQELLKSNGANRDSSDLAPTLRSSSISTATSLMSMEGISYTNSNPSATPNMEDTLLTFSMGILPITMDCDPVTQLSQLFQQGAPLCILFNSVKPQFKLPVIASDDLKVCKKSIYDFILGCKKHFAFNDEELFTISDVFANSTSQLVKVLEVVETLMNSSPTIFPSKSKTQQIMNAENQHRHQPQQSSKKHNEYVKIIKEFVATERKYVHDLEILDKYRQQLLDSNLITSEELYMLFPNLGDAIDFQRRFLISLEINALVEPSKQRIGALFMHSKHFFKLYEPWSIGQNAAIEFLSSTLHKMRVDESQRFIINNKLELQSFLYKPVQRLCRYPLLVKELLAESSDDNNTKELEAALDISKNIARSINENQRRTENHQVVKKLYGRVVNWKGYRISKFGELLYFDKVFISTTNSSSEPEREFEVYLFEKIIILFSEVVTKKSASSLILKKKSSTSASISASNITDNNGSPHHSYHKRHSNSSSSNNIHLSSSSAAAIIHSSTNSSDNNSNNSSSSSLFKLSANEPKLDLRGRIMIMNLNQIIPQNNRSLNITWESIKEQGNFLLKFKNEETRDNWSSCLQQLIHDLKNEQFKARHHSSTSTTSSTAKSSSMMSPTTTMNTPNHHNSRQTHDSMASFSSSHMKRVSDVLPKRRTTSSSFESEIKSISENFKNSIPESSILFRISYNNNSNNTSSSEIFTLLVEKVWNFDDLIMAINSKISNTHNNNISPITKIKYQDEDGDFVVLGSDEDWNVAKEMLAENNEKFLNIRLY
partner: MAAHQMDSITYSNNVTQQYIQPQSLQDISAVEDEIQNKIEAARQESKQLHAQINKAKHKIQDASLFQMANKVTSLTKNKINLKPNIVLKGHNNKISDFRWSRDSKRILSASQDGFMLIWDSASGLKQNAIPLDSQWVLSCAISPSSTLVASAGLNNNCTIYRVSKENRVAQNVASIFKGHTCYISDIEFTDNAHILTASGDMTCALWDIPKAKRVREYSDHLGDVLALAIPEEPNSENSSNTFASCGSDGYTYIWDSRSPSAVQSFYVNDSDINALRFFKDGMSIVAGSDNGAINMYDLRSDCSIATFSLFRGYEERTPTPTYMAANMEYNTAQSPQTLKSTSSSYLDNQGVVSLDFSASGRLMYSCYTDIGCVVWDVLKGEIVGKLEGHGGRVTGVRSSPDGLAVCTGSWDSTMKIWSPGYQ

Variants of: B1
Details: with gbb_yeast STE4, P18851

effect of a mutation on the interaction | Variant
disrupting interaction | S189F
